Broadly, the Kd is a measure of binding affinity in units of concentration.

Positions count from the first letter of the chain named.

The chains are these.
B1: recombinant human S100A1 (natural protein)
chain: GSELETAMETLINVFHAHSGKEGDKYKLSKKELKELLQTELSGFLDAQKDVDAVDKVMKELDENGDGEVDFQEYVVLVAALTVACNNFFWENS
notes: human S100A1, Swiss-Prot P23297, gene cloned into pHUE between SacII and HindIII; Made as a ubiquitin-S100 chimera and cut with Usp2; also called S10A1; source: E. coli BL21 (DE3) with pLacIRARE, purified (IMAC, Usp2 cleavage, anion exchange, gel filtration)
B2: recombinant human S100A4 (natural protein)
chain: not shown
notes: human S100A4, Swiss-Prot P26447, gene cloned into pHUE between SacII and HindIII; Made as a ubiquitin-S100 chimera and cut with Usp2; also called S10A4; source: E. coli BL21 (DE3) with pLacIRARE, purified (IMAC, Usp2 cleavage, anion exchange, gel filtration)
B3: recombinant human S100A12 (natural protein, UniProt P80511 1-92, looked up)
chain: MTKLEEHLEGIVNIFHQYSVRKGHFDTLSKGELKQLLTKELANTIKNIKDKAVIDEIFQGLDANQDEQVDFQEFISLVAIALKAAHYHTHKE
notes: human S100A12, Swiss-Prot P80511, gene cloned into pHUE between SacII and HindIII; Made as a ubiquitin-S100 chimera and cut with Usp2; also called S10AC; source: E. coli BL21 (DE3) with pLacIRARE, purified (IMAC, Usp2 cleavage, anion exchange, gel filtration)
B4: recombinant human S100A7 (natural protein, UniProt P31151 1-101, looked up)
chain: MSNTQAERSIIGMIDMFHKYTRRDDKIEKPSLLTMMKENFPNFLSACDKKGTNYLADVFEKKDKNEDKKIDFSEFLSLLGDIATDYHKQSHGAAPCSGGSQ
notes: human S100A7, Swiss-Prot P31151, gene cloned into pHUE between SacII and HindIII; Made as a ubiquitin-S100 chimera and cut with Usp2; also called S10A7; source: E. coli BL21(DE3)-RIL, purified (IMAC, Usp2 cleavage, anion exchange, gel filtration)
B5: recombinant human S100A15 (S100A7A) (natural protein, UniProt Q86SG5 1-101, looked up)
chain: B4 chain with R22G, D25G, T52I, N53H, D57T, T84A
notes: human S100A15 (S100A7A), Swiss-Prot Q86SG5, gene cloned into pHUE between SacII and HindIII; Made as a ubiquitin-S100 chimera and cut with Usp2; also called A1A7A; source: E. coli BL21(DE3)-RIL, purified (IMAC, Usp2 cleavage, anion exchange, gel filtration)
B6: recombinant human S100A14 (natural protein, UniProt Q9HCY8 1-104, looked up)
chain: MGQCRSANAEDAQEFSDVERAIETLIKNFHQYSVEGGKETLTPSELRDLVTQQLPHLMPSNCGLEEKIANLGSCNDSKLEFRSFWELIGEAAKSVKLERPVRGH
notes: human S100A14, Swiss-Prot Q9HCY8, gene cloned into pHUE between SacII and HindIII; Made as a ubiquitin-S100 chimera and cut with Usp2; also called S10AE; source: E. coli BL21(DE3)-RIL, purified (IMAC, Usp2 cleavage, second IMAC, gel filtration)
B7: recombinant human S100A11 (natural protein, UniProt P31949 1-105, looked up)
chain: MAKISSPTETERCIESLIAVFQKYAGKDGYNYTLSKTEFLSFMNTELAAFTKNQKDPGVLDRMMKKLDTNSDGQLDFSEFLNLIGGLAMACHDSFLKAVPSQKRT
notes: human S100A11, Swiss-Prot P31949, gene cloned into pHUE between SacII and HindIII; Made as a ubiquitin-S100 chimera and cut with Usp2; also called S10AB; source: E. coli BL21 (DE3) with pLacIRARE, purified (IMAC, Usp2 cleavage, anion exchange, gel filtration)
B8: recombinant human S100A9 (natural protein, UniProt P06702 1-114, looked up)
chain: MTCKMSQLERNIETIINTFHQYSVKLGHPDTLNQGEFKELVRKDLQNFLKKENKNEKVIEHIMEDLDTNADKQLSFEEFIMLMARLTWASHEKMHEGDEGPGHHHKPGLGEGTP
notes: human S100A9, Swiss-Prot P06702, gene cloned into pET-11a between NdeI and BamHI; also called S10A9; source: E. coli BL21(DE3)pLysS, purified (ammonium sulfate, anion exchange, cation exchange, gel filtration)
B9: recombinant human S100A8 (natural protein, UniProt P05109 1-93, looked up)
chain: MLTELEKALNSIIDVYHKYSLIKGNFHAVYRDDLKKLLETECPQYIRKKGADVWFKELDINTDGAVNFQEFLILVIKMGVAAHKKSHEESHKE
notes: human S100A8, Swiss-Prot P05109, gene cloned into pHUE between SacII and HindIII; Made as a ubiquitin-S100 chimera and cut with Usp2; also called S10A8; source: E. coli BL21(DE3)-RIL, purified (IMAC, Usp2 cleavage, anion exchange, gel filtration)
B10: recombinant human S100A13 (natural protein, UniProt Q99584 1-98, looked up)
chain: MAAEPLTELEESIETVVTTFFTFARQEGRKDSLSVNEFKELVTQQLPHLLKDVGSLDEKMKSLDVNQDSELKFNEYWRLIGELAKEIRKKKDLKIRKK
notes: human S100A13, Swiss-Prot Q99584, gene cloned into pET-11a between NdeI and BamHI; also called S10AD

One data set concerns the molecule itself. The data set can be described thus: SPR; estimate from the SPR data for 0.5 µM S100 analyte on immobilised IFN-β, 1 mM CaCl2; dimer to monomers, Ca^2+-loaded S100.
Conditions: not given
For the molecule B1, the Kd was at most 0.5 µM.

For the molecule B2, the Kd is at most 0.5 µM.

The target of a further data set is T1, recombinant human interferon beta-1a (human, UniProt P01574 22-187).
T1 construct: human interferon beta (interferon beta-1a), UniProt P01574; Pharmaceutical interferon beta-1a; also called IFN-β; Interferon-β; source: bought: Merck (Rebif), produced in CHO-K1 cells
Put plainly: SPR; IFN-β immobilised on ProteOn GLH chip by amine coupling; Ca^2+-loaded S100 as analyte (0.25–5 µM S100A1, 0.5–5 µM S100A4/A6, 5 µM other S100); 25 °C; 10 mM HEPES, 150 mM NaCl, 0.01% TWEEN 20, pH 7.4, 1 mM CaCl2; heterogeneous ligand model. The following applies: both partners purified. (In general: Surface plasmon resonance follows binding to a sensor surface in real time, without labels.)
With B3, the Kd is at least 10 µM.

In the case of B4, the equilibrium dissociation constant (Kd) was at least 10 µM.

On to B5, for which the dissociation constant (Kd) is at least 10 µM.

As to B6, the Kd was at least 10 µM.

For B7, the Kd was at least 10 µM.

Turning to B8, the Kd is at least 10 µM.

As for B9, the Kd is at least 10 µM.

On to B10, for which the equilibrium dissociation constant (Kd) is at least 10 µM.

Source of the values: PMC7764042, “Interferon Beta Activity Is Modulated via Binding of Specific S100 Proteins” (International Journal of Molecular Sciences, 2020).
